From patent publication US20110263454A1, “Methods of Identifying Functional Characteristics of Promoters, Transcription Modifying Proteins and Transcription Modulating Agents” (Salk Institute for Biological Studies, priority 2008, published 2011)

B1: RXRg: Retinoic X Receptor γ (NR2B3), cDNA driver (protein, UniProt P48443 1-463, looked up)
Retinoic acid receptor …: MYGNYSHFMKFPAGYGGSPGHTGSTSMSPSAALSTGKPMDSHPSYTDTPVSAPRTLSAVGTPLNALGSPYRVITSAMGPPSGALAAPPGINLVAPPSSQLNVVNSVSSSEDIKPLPGLPGIGNMNYPSTSPGSLVKHICAICGDRSSGKHYGVYSCEGCKGFFKRTIRKDLIYTCRDNKDCLIDKRQRNRCQYCRYQKCLVMGMKREAVQEERQRSRERAESEAECATSGHEDMPVERILEAELAVEPKTESYGDMNMENSTNDPVTNICHAADKQLFTLVEWAKRIPHFSDLTLEDQVILLRAGWNELLIASFSHRSVSVQDGILLATGLHVHRSSAHSAGVGSIFDRVLTELVSKMKDMQMDKSELGCLRAIVLFNPDAKGLSNPSEVETLREKVYATLEAYTKQKYPEQPGRFAKLLLRLPALRSIGLKCLEHLFFFKLIGDTPIDTFLMEMLETPLQIT
B2: HNF4g: Hepatocyte Nuclear Factor γ (NR2A2), cDNA driver (protein, UniProt Q14541 1-408, looked up)
Hepatocyte nuclear factor …: MNTTDNGVNCLCAICGDRATGKHYGASSCDGCKGFFRRSIRKSHVYSCRFSRQCVVDKDKRNQCRYCRLRKCFRAGMKKEAVQNERDRISTRRSTFDGSNIPSINTLAQAEVRSRQISVSSPGSSTDINVKKIASIGDVCESMKQQLLVLVEWAKYIPAFCELPLDDQVALLRAHAGEHLLLGATKRSMMYKDILLLGNNYVIHRNSCEVEISRVANRVLDELVRPFQEIQIDDNEYACLKAIVFFDPDAKGLSDPVKIKNMRFQVQIGLEDYINDRQYDSRGRFGELLLLLPTLQSITWQMIEQIQFVKLFGMVKIDNLLQEMLLGGASNDGSHLHHPMHPHLSQDPLTGQTILLGPMSTLVHADQISTPETPLPSPPQGSGQEQYKIAANQASVISHQHLSKQKQL
B3: TR2: Testicular Orphan Nuclear Receptor 2 (NR2C1), cDNA driver (protein, UniProt P13056 1-603, looked up)
Nuclear receptor subfamily 2 …: MATIEEIAHQIIEQQMGEIVTEQQTGQKIQIVTALDHNTQGKQFILTNHDGSTPSKVILARQDSTPGKVFLTTPDAAGVNQLFFTTPDLSAQHLQLLTDNSPDQGPNKVFDLCVVCGDKASGRHYGAVTCEGCKGFFKRSIRKNLVYSCRGSKDCIINKHHRNRCQYCRLQRCIAFGMKQDSVQCERKPIEVSREKSSNCAASTEKIYIRKDLRSPLTATPTFVTDSESTRSTGLLDSGMFMNIHPSGVKTESAVLMTSDKAESCQGDLSTLANVVTSLANLGKTKDLSQNSNEMSMIESLSNDDTSLCEFQEMQTNGDVSRAFDTLAKALNPGESTACQSSVAGMEGSVHLITGDSSINYTEKEGPLLSDSHVAFRLTMPSPMPEYLNVHYIGESASRLLFLSMHWALSIPSFQALGQENSISLVKAYWNELFTLGLAQCWQVMNVATILATFVNCLHNSLQQDKMSTERRKLLMEHIFKLQEFCNSMVKLCIDGYEYAYLKAIVLFSPDHPSLENMEQIEKFQEKAYVEFQDYITKTYPDDTYRLSRLLLRLPALRLMNATITEELFFKGLIGNIRIDSVIPHILKMEPADYNSQIIGHSI
B4: RORb: RAR-related Orphan Receptor β (NR1F2), cDNA driver (protein, UniProt Q92753 1-470, looked up)
Nuclear receptor ROR-beta: MCENQLKTKADATAQIEVIPCKICGDKSSGIHYGVITCEGCKGFFRRSQQNNASYSCPRQRNCLIDRTNRNRCQHCRLQKCLALGMSRDAVKFGRMSKKQRDSLYAEVQKHQQRLQEQRQQQSGEAEALARVYSSSISNGLSNLNNETSGTYANGHVIDLPKSEGYYNVDSGQPSPDQSGLDMTGIKQIKQEPIYDLTSVPNLFTYSSFNNGQLAPGITMTEIDRIAQNIIKSHLETCQYTMEELHQLAWQTHTYEEIKAYQSKSREALWQQCAIQITHAIQYVVEFAKRITGFMELCQNDQILLLKSGCLEVVLVRMCRAFNPLNNTVLFEGKYGGMQMFKALGSDDLVNEAFDFAKNLCSLQLTEEEIALFSSAVLISPDRAWLIEPRKVQKLQEKIYFALQHVIQKNHLDDETLAKLIAKIPTITAVCNLHGEKLQVFKQSHPEIVNTLFPPLYKELFNPDCATGCK
B5: TR4: Testicular Orphan Nuclear Receptor 4 (NR2C2), cDNA driver (protein, UniProt P49116 1-596, looked up)
Nuclear receptor subfamily 2 …: MTSPSPRIQIISTDSAVASPQRIQIVTDQQTGQKIQIVTAVDASGSPKQQFILTSPDGAGTGKVILASPETSSAKQLIFTTSDNLVPGRIQIVTDSASVERLLGKTDVQRPQVVEYCVVCGDKASGRHYGAVSCEGCKGFFKRSVRKNLTYSCRSNQDCIINKHHRNRCQFCRLKKCLEMGMKMESVQSERKPFDVQREKPSNCAASTEKIYIRKDLRSPLIATPTFVADKDGARQTGLLDPGMLVNIQQPLIREDGTVLLATDSKAETSQGALGTLANVVTSLANLSESLNNGDTSEIQPEDQSASEITRAFDTLAKALNTTDSSSSPSLADGIDTSGGGSIHVISRDQSTPIIEVEGPLLSDTHVTFKLTMPSPMPEYLNVHYICESASRLLFLSMHWARSIPAFQALGQDCNTSLVRACWNELFTLGLAQCAQVMSLSTILAAIVNHLQNSIQEDKLSGDRIKQVMEHIWKLQEFCNSMAKLDIDGYEYAYLKAIVLFSPDHPGLTSTSQIEKFQEKAQMELQDYVQKTYSEDTYRLARILVRLPALRLMSSNITEELFFTGLIGNVSIDSIIPYILKMETAEYNGQITGASL

Key:
mDio2 promoter = assay: NHR-promoter luciferase screen, mDio2 promoter; type: cell-based, mouse; details: for Luc. act., normalized to lacZ / Normalized Luc. act., normalized to control: Dio2, HR component without or with its ligand; for mDio2 promoter reporter activity: transcription factor +/- ligand, control = 1.00
Procedure, shortened: (§1)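 CV-1 cells were co-transfected with 50 ng NHR (homodimer or NHR/RXR heterodimer), 100 ng promoter-luciferase construct and 50 ng LacZ. Luciferase was normalized to LacZ and to a no-NHR/no-ligand control.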

mUCP1 promoter = assay: NHR-promoter luciferase screen, mUCP1 promoter; type: cell-based, mouse; details: for Luc. act., normalized to lacZ / Normalized Luc. act., normalized to control: mUCP1 promoter reporter, co-transfected HR, with or without its ligand; for Normalized Luc. act., normalized to control: relative to control; for luciferase activity normalized to lacZ activity and to a control, mUCP!: mUCP! promoter-luciferase, CV-1 cells, NHR +/- ligand, control = 1.00
Procedure, shortened: as §1

SREBP1c promoter = assay: NHR-promoter luciferase screen, SREBP1c promoter; type: cell-based, mouse; details: for Luc. act., normalized to lacZ / Normalized Luc. act., normalized to control: SREBP1c promoter, HR component without or with ligand; for mSREBP1-c promoter reporter activity: transcription factor +/- ligand, control = 1.00
Procedure, shortened: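 CV-1 cells co-transfected with 50 ng NHR (homodimer or NHR/RXR heterodimer), 100 ng promoter-luciferase and 50 ng LacZ. Luciferase read at 48 h, normalised to LacZ and to a no-NHR/no-ligand control.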

hTNFa promoter = assay: NHR-promoter luciferase screen, hTNFa promoter; type: cell-based, human; details: for Luc. act., normalized to lacZ / Normalized Luc. act., normalized to control: TNFa promoter, HR component without or with ligand; for hTNFa promoter reporter activity: transcription factor +/- ligand, control = 1.00
Procedure, shortened: as §1

hPOMC promoter = assay: NHR-promoter luciferase screen, hPOMC promoter; type: cell-based, human; details: for Luc. act., normalized to lacZ / Normalized Luc. act., normalized to control: hPOMC promoter, HR/ligand component; for hPOMC promoter reporter activity: transcription factor +/- ligand, control = 1.00
Procedure, shortened: as §1

hMyoD promoter = assay: NHR-promoter luciferase screen, hMyoD promoter; type: cell-based, human; details: for Luc. act., normalized to lacZ / Normalized Luc. act., normalized to control: MyoD promoter reporter, co-transfected HR, without or with its ligand; for Normalized Luc. act., normalized to control: relative to control; for luciferase activity normalized to lacZ activity and to a control, hMyoD: hMyoD promoter-luciferase, CV-1 cells, NHR +/- ligand, control = 1.00
Procedure, shortened: as §1

Row | Molecule | Luc. act., normalized to lacZ (mDio2 promoter) | Normalized Luc. act., normalized to control (mDio2 promoter) | mDio2 promoter reporter activity (mDio2 promoter) | Luc. act., normalized to lacZ (mUCP1 promoter) | Normalized Luc. act., normalized to control (mUCP1 promoter) | luciferase activity normalized to lacZ activity and to a control, mUCP! (mUCP1 promoter) | Luc. act., normalized to lacZ (SREBP1c promoter) | Normalized Luc. act., normalized to control (SREBP1c promoter) | mSREBP1-c promoter reporter activity (SREBP1c promoter) | Luc. act., normalized to lacZ (hTNFa promoter) | Normalized Luc. act., normalized to control (hTNFa promoter) | hTNFa promoter reporter activity (hTNFa promoter) | Luc. act., normalized to lacZ (hPOMC promoter) | Normalized Luc. act., normalized to control (hPOMC promoter) | hPOMC promoter reporter activity (hPOMC promoter) | Luc. act., normalized to lacZ (hMyoD promoter) | Normalized Luc. act., normalized to control (hMyoD promoter) | luciferase activity normalized to lacZ activity and to a control, hMyoD (hMyoD promoter) | luciferase/LacZ, hPOMC (selected results) (hPOMC promoter; hPOMC promoter-luciferase, NHR +/- ligand, control = 1.0)
1 | B1 | 27.8 | 1.8 | 1.77 | 2.5 | 0.6 | 0.55 | 999.7 | 3.1 | 3.10 | 1025.0 | 1.0 | 1.04 | 2.5 | 0.6 | 0.58 | 67.6 | 1.1 | 1.07 | –
2 | B2 | 18.0 | 1.1 | 1.14 | 3.5 | 0.8 | 0.79 | 296.9 | 0.9 | 0.92 | 859.3 | 0.9 | 0.87 | 5.3 | 1.2 | 1.23 | 67.2 | 1.1 | 1.06 | –
3 | B3 | 33.8 | 2.2 | 2.15 | 8.1 | 1.8 | 1.82 | 102.9 | 0.3 | 0.32 | 1038.2 | 1.1 | 1.06 | 15.7 | 3.6 | 3.65 | 83.1 | 1.3 | 1.31 | –
4 | B4 | 23.1 | 1.5 | 1.47 | 3.8 | 0.9 | 0.86 | 442.5 | 1.4 | 1.37 | 1029.5 | 1.0 | 1.05 | 2.2 | 0.5 | 0.52 | 73.9 | 1.2 | 1.17 | –
5 | B5 | 51.9 | 3.3 | 3.31 | 26.4 | 5.9 | 5.94 | 477.6 | 1.5 | 1.48 | 1189.6 | 1.2 | 1.21 | 50.7 | 11.8 | 11.80 | 213.9 | 3.4 | 3.38 | 11.8
